Results: patent US20040253224

System: Bovine submaxillary gland mucin (Sigma)

mouse AMCase (acidic mammalian chitinase)
degradation of mucin on 7.5% SDS-PAGE with silver staining after overnight incubation at 37 C, pH 5.0 (125 ug mucin, 500 ng mouse AMCase): the mucin was degraded by treatment with the AMCase
flow rate of the mucin solution, measured in a vertically positioned glass pipette, after incubation with AMCase: increased with almost a factor of 2
